Experimental data taken from the supplement of paper PMC10065799, “High-throughput profiling of sequence recognition by tyrosine kinases and SH2 domains using bacterial peptide display” (eLife, 2023).

Tests used:
Grb2 SH2 = Grb2 SH2 (UniProt P62993); assay: SH2 binding enrichment of the phosphorylated peptide, bacterial display (enrichment ratio); higher = better substrate or ligand; peptides without Tyr show the background
c-Src SH2 = assay: as above
SHP2-C SH2 = assay: as above
Hck = Hck (UniProt P08631); assay: phosphorylation enrichment, bacterial display (enrichment ratio); higher = better substrate or ligand; peptides without Tyr show the background
Chain of Hck (P08631 whole entry, looked up): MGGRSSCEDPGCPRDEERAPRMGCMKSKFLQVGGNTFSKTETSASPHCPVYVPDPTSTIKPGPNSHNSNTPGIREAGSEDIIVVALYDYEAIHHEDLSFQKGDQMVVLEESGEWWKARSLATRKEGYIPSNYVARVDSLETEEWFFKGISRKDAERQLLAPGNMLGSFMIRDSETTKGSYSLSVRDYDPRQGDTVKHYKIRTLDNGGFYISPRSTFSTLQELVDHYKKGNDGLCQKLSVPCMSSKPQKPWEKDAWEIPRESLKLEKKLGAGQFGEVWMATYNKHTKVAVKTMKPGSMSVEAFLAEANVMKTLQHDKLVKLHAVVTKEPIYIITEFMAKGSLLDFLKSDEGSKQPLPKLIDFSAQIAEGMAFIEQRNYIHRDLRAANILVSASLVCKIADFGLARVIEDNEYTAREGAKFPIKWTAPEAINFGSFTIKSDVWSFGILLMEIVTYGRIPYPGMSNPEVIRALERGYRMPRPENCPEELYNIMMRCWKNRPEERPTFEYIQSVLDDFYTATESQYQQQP

MERTK = MERTK (UniProt Q12866); assay: as above
Chain of MERTK (Q12866 whole entry, looked up): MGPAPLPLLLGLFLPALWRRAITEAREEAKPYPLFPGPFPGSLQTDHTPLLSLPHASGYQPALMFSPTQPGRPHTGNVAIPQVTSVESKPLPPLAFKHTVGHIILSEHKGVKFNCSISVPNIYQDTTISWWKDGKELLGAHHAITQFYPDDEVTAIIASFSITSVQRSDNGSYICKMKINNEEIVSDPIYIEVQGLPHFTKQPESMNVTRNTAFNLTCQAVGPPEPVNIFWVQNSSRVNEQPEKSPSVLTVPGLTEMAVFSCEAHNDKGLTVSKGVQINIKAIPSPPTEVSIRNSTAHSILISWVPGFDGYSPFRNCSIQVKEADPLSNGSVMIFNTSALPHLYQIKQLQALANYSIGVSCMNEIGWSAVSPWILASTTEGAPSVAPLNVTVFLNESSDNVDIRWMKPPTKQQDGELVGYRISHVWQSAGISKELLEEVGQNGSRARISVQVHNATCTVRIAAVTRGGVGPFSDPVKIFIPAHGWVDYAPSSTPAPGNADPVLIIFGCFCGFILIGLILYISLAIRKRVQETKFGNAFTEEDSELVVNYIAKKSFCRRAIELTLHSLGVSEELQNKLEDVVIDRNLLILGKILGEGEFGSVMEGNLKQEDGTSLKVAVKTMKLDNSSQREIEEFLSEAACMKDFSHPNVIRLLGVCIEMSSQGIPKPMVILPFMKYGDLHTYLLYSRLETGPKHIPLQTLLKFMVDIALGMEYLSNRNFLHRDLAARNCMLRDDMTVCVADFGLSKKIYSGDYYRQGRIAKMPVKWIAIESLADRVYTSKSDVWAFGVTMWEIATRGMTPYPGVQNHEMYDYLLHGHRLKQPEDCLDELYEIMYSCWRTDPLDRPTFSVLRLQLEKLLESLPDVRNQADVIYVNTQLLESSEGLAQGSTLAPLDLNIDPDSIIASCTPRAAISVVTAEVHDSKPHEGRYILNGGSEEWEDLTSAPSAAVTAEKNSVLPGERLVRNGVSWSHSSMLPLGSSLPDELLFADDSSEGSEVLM

Fer (mouse) = assay: as above
Fyn = Fyn (UniProt P06241); assay: as above
Chain of Fyn (P06241 whole entry, looked up): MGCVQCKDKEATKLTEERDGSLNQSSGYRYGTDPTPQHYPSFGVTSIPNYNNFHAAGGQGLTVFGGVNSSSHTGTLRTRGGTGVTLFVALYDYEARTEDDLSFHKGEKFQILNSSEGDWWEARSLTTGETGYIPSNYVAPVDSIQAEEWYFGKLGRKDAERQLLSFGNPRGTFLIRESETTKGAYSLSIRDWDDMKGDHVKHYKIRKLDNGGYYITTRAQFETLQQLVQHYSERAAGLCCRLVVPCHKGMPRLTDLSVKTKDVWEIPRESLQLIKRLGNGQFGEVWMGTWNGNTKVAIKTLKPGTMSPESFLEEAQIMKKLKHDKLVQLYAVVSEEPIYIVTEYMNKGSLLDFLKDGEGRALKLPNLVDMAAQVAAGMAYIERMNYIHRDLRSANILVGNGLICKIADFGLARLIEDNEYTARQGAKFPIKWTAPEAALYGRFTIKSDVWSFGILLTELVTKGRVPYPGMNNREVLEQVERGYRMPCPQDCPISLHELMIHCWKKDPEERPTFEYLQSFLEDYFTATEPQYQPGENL

FGFR3 = FGFR3 (UniProt P22607); assay: as above
EPHB2 = EPHB2 (UniProt P29323); assay: as above
Jak2 = Jak2 (UniProt O60674); assay: as above
Chain of Jak2 (O60674 whole entry, looked up): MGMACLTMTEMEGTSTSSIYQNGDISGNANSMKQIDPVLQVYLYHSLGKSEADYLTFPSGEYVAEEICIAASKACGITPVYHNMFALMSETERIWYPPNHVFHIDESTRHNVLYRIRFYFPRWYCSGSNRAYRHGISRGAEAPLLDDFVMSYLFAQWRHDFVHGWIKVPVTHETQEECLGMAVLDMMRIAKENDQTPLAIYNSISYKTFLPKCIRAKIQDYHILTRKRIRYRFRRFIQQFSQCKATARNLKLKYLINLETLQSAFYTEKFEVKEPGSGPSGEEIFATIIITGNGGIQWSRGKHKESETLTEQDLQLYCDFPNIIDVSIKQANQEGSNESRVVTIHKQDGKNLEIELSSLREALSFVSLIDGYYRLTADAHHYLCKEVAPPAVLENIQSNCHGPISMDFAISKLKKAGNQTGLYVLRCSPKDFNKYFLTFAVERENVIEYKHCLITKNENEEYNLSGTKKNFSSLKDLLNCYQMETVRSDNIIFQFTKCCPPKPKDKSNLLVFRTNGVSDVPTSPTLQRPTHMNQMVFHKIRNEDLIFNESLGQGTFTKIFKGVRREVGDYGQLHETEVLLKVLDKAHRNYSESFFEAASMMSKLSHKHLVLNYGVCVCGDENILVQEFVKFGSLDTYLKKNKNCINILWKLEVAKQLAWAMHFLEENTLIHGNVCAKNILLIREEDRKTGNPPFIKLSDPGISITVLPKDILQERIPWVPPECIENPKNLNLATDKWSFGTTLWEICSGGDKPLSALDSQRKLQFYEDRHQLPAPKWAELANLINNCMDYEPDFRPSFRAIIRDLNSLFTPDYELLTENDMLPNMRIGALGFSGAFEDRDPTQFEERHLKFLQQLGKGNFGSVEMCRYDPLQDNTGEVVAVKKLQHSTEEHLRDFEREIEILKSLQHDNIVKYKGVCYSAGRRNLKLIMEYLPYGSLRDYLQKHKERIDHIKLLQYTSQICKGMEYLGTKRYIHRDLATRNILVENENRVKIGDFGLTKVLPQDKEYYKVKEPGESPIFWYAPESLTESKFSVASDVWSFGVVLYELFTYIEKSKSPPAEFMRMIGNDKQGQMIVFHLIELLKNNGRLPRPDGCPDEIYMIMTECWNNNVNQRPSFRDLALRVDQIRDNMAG

c-Src = assay: as above
Fes = Fes (UniProt P07332); assay: as above
Chain of Fes (P07332 whole entry, looked up): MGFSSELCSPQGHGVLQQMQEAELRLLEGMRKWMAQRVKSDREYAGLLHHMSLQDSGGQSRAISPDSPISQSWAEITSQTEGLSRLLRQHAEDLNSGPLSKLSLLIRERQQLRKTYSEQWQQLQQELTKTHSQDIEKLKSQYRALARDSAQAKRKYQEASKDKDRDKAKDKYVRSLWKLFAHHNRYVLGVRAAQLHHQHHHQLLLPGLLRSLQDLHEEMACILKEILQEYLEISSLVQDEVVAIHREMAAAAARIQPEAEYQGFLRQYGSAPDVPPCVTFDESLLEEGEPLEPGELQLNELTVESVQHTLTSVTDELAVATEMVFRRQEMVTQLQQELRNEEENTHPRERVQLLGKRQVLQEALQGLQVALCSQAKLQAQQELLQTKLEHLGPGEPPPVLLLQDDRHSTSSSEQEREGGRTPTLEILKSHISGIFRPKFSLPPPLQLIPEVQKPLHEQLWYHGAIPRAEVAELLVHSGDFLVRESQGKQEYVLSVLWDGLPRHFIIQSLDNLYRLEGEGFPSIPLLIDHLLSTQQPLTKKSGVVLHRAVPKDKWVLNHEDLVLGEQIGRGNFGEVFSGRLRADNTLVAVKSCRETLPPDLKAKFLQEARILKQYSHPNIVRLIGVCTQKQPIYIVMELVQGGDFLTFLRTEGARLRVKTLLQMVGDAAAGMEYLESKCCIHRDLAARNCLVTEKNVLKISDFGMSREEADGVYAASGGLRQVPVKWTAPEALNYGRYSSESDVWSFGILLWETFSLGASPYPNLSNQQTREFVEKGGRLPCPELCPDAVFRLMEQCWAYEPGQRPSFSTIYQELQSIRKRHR

c-Abl (mouse) = assay: as above
FGFR1 = FGFR1 (UniProt P11362); assay: as above
EPHB1 = EPHB1 (UniProt P54762); assay: as above
Chain of EPHB1 (P54762 whole entry, looked up): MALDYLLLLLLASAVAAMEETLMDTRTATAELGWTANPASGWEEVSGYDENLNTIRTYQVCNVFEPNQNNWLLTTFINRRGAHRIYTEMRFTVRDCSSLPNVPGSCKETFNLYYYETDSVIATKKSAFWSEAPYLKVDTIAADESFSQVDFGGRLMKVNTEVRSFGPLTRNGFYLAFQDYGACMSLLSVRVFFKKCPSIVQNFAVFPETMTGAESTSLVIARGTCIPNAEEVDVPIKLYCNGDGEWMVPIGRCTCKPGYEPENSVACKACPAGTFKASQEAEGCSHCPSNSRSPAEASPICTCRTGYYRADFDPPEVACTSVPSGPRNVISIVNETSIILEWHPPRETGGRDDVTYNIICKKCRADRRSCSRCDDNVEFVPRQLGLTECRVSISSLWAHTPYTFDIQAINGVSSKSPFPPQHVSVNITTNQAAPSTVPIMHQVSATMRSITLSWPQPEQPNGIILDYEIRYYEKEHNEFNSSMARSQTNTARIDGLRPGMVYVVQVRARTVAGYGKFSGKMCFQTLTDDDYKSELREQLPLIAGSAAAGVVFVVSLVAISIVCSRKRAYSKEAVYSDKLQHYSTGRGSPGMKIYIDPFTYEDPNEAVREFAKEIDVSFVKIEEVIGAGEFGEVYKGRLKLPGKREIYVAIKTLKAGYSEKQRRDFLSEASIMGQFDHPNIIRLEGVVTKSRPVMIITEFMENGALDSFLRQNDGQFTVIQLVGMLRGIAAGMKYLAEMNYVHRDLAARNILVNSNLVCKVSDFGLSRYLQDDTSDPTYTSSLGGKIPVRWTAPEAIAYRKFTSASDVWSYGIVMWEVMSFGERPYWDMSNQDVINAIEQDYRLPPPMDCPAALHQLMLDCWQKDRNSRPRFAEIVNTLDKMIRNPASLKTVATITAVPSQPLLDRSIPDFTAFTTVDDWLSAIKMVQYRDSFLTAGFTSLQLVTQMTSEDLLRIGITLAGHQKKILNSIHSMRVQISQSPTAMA

AncSZ = assay: as above
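Throughout, for SH2 binding enrichment of the phosphorylated peptide, bacterial display: peptide library displayed on the E. coli surface as eCPX fusions, selected cells deep-sequenced, score is each peptide's frequency after selection divided by its frequency in the input.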
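Throughout, for phosphorylation enrichment, bacterial display: 11-residue human phosphosite peptides and single-mutation variants displayed on the E. coli surface, counted by deep sequencing, each peptide's frequency after selection divided by its frequency in the unselected input library; frequency after pTyr selection over input frequency; kinase dosed for 20-30% of maximal phosphorylation in three min.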

SH2 binding enrichment (Grb2 SH2) | SH2 binding enrichment (c-Src SH2) | SH2 binding enrichment (SHP2-C SH2) | Sequence | phosphorylation enrichment (Hck) | phosphorylation enrichment (MERTK) | phosphorylation enrichment (Fer (mouse)) | phosphorylation enrichment (Fyn) | phosphorylation enrichment (FGFR3) | phosphorylation enrichment (EPHB2) | phosphorylation enrichment (Jak2) | phosphorylation enrichment (c-Src) | phosphorylation enrichment (Fes) | phosphorylation enrichment (c-Abl (mouse)) | phosphorylation enrichment (FGFR1) | phosphorylation enrichment (EPHB1) | phosphorylation enrichment (AncSZ)
0.89 | 0.662 | 0.693 | GTPVMYTFDEF [COL10A1_Y623_YF] | 0.474 | 1.03 | 0.473 | 0.733 | 0.806 | 0.611 | 1.16 | 0.668 | 1.16 | 0.767 | 0.504 | 0.621 | 1.03
0.825 | 0.473 | 0.824 | GKLIFHDLRGE [KARS1_Y145_Y145H] | 0.389 | 0.383 | 0.389 | 0.369 | 0.575 | 0.405 | 0.632 | 0.399 | 0.802 | 0.504 | 0.37 | 0.475 | 0.696
0.727 | 0.592 | 0.882 | EIEFLYNENMV [IARS1_Y680_T684M] | 0.526 | 0.411 | 0.526 | 0.484 | 0.693 | 0.678 | 1.07 | 0.421 | 1.11 | 0.62 | 0.418 | 0.595 | 1.21
0.956 | 0.746 | 1.25 | GVMLLYFGRFN [ADGRD1_Y85_T82M_YF] | 0.531 | 0.393 | 0.508 | 0.441 | 0.705 | 0.528 | 1.15 | 0.343 | 1.26 | 0.65 | 0.53 | 0.529 | 1.4
0.831 | 0.755 | 0.737 | IINENYDFLKG [NUP98_Y1664_YF] | 1.19 | 0.602 | 0.466 | 0.426 | 0.631 | 0.726 | 0.761 | 0.495 | 0.903 | 0.57 | 0.518 | 0.677 | 0.82
0.781 | 0.518 | 0.568 | CQGSLYPSNHD [LRIG1_Y996] | 0.611 | 0.391 | 0.501 | 0.535 | 0.551 | 0.531 | 1.03 | 0.571 | 0.979 | 0.567 | 0.531 | 0.582 | 0.879
1.21 | 0.852 | 1.05 | LLREWYMIFSR [HUWE1_Y4066_I4069F] | 0.915 | 0.932 | 0.943 | 0.755 | 1.14 | 1.57 | 2.17 | 1.45 | 2 | 1.8 | 0.713 | 1.07 | 2.11
1.3 | 1.19 | 1.37 | WKGSWYSMKKM [FGB_Y475_R478K] | 0.437 | 0.362 | 0.353 | 0.488 | 0.553 | 0.506 | 0.859 | 0.373 | 0.918 | 0.533 | 0.488 | 0.645 | 0.736
1.2 | 0.8 | 1.17 | PLKALYLQQRL [ATM_Y2969_P2974L] | 0.62 | 0.523 | 0.398 | 0.343 | 0.692 | 0.629 | 0.634 | 0.46 | 1.01 | 0.722 | 0.429 | 0.539 | 0.776
0.904 | 16.5 | 19.4 | YEHVGYTTLNR [CHN1_Y148] | 2.79 | 4.18 | 4.18 | 0.657 | 0.597 | 0.758 | 0.725 | 0.655 | 0.658 | 1.01 | 0.725 | 0.616 | 0.72
1.27 | 0.961 | 1.3 | QKPLGYYRVNL [GALE_Y104_D103G] | 0.497 | 0.516 | 0.51 | 0.528 | 0.826 | 0.482 | 2.37 | 0.386 | 0.641 | 0.455 | 0.636 | 0.445 | 0.667
0.948 | 0.565 | 0.831 | LQRVQYDLQKA [DSP_Y1512] | 0.397 | 0.646 | 0.58 | 0.582 | 0.816 | 0.907 | 0.642 | 0.409 | 0.788 | 0.496 | 0.897 | 1.3 | 0.872
1.43 | 4.39 | 1.63 | YYYDLYGGEKF [PTPN11_Y66_D61Y] | 6.45 | 9.48 | 4.15 | 5.97 | 13.6 | 11.5 | 5.36 | 5.71 | 1.3 | 0.964 | 14.7 | 7.99 | 1.98
0.998 | 0.536 | 0.533 | ATHRGYDSDNP [MMUT_Y146] | 0.471 | 0.363 | 0.418 | 0.404 | 0.472 | 0.444 | 0.523 | 0.365 | 0.731 | 0.548 | 0.377 | 0.342 | 0.586
1.15 | 0.715 | 1.31 | FYRKVYHLASV [RBL1_Y796] | 0.422 | 0.39 | 0.779 | 0.444 | 0.673 | 0.566 | 0.667 | 0.296 | 0.745 | 0.416 | 0.555 | 0.447 | 0.853
1.46 | 1.34 | 1.46 | CHKCTYKVTGL | 0.472 | 0.453 | 0.419 | 0.49 | 0.693 | 0.462 | 0.556 | 0.504 | 0.682 | 0.523 | 0.488 | 0.444 | 0.622
